In data set [1] the target is T1, Murine LTBP4 with the 12-amino-acid insertion (expressed fragment, FIG. 5) (UniProt Q8K4G1).
T1 sequence: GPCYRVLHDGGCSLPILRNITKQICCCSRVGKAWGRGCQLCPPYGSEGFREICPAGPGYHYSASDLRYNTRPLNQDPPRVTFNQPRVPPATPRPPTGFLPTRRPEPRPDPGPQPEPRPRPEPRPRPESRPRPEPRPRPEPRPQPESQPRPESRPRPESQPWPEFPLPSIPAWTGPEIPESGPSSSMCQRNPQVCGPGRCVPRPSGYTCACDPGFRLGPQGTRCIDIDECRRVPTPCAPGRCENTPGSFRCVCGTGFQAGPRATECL

The subject of data set [2] is T2, human LTBP4 TP2E fragment (amino acids 357-586).
T2 sequence: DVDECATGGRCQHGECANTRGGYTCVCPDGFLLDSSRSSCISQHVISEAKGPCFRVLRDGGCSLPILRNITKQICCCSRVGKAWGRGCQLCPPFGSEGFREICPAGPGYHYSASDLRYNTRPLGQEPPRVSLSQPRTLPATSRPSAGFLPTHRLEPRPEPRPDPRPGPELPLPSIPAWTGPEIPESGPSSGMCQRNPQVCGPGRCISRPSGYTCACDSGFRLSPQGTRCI

The subject of data set [3] is T3, human LTBP4 proline-rich region fragment (FIG. 5).
T3 sequence: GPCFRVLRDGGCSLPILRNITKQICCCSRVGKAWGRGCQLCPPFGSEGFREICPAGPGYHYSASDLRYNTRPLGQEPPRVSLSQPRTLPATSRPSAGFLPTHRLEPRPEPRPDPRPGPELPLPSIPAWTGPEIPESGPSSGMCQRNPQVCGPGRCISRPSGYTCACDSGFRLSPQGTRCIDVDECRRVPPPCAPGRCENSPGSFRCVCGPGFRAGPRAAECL

Data set [4] has as its system human latent TGFβ binding protein 4 (LTBP4), full-length.
Data set [5] deals with murine LTBP4 TP2E fragment (UniProt Q8K4G1).
Data set [6] addresses murine LTBP4 deleted for the 12 amino acids (expressed fragment, FIG. 5) (UniProt Q8K4G1).

Sequence of plasmin (P00747 20-580): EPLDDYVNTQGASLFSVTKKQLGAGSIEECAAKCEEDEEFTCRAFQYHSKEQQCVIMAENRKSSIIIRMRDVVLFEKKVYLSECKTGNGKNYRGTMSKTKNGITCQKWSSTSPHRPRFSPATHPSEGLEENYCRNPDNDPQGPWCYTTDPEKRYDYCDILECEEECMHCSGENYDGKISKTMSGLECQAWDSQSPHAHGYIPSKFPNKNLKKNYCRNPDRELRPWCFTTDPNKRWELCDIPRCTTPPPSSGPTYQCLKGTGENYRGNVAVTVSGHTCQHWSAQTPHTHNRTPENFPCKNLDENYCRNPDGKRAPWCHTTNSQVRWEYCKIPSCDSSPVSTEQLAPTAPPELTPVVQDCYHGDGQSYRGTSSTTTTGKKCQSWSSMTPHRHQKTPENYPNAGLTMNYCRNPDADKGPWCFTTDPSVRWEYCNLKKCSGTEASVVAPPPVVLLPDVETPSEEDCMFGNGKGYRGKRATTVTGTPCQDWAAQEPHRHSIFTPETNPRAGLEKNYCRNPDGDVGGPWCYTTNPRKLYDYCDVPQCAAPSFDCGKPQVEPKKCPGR
Sequence of plasmin (P00747 581-810): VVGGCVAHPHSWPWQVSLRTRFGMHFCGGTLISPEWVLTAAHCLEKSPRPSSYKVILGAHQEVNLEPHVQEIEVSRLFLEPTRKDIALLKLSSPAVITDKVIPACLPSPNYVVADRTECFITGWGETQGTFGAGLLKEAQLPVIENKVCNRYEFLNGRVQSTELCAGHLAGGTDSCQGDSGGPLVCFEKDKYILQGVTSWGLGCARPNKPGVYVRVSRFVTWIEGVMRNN
Sequence of human latent TGFβ binding protein 4 (LTBP4), full-length (chain, as listed by the source): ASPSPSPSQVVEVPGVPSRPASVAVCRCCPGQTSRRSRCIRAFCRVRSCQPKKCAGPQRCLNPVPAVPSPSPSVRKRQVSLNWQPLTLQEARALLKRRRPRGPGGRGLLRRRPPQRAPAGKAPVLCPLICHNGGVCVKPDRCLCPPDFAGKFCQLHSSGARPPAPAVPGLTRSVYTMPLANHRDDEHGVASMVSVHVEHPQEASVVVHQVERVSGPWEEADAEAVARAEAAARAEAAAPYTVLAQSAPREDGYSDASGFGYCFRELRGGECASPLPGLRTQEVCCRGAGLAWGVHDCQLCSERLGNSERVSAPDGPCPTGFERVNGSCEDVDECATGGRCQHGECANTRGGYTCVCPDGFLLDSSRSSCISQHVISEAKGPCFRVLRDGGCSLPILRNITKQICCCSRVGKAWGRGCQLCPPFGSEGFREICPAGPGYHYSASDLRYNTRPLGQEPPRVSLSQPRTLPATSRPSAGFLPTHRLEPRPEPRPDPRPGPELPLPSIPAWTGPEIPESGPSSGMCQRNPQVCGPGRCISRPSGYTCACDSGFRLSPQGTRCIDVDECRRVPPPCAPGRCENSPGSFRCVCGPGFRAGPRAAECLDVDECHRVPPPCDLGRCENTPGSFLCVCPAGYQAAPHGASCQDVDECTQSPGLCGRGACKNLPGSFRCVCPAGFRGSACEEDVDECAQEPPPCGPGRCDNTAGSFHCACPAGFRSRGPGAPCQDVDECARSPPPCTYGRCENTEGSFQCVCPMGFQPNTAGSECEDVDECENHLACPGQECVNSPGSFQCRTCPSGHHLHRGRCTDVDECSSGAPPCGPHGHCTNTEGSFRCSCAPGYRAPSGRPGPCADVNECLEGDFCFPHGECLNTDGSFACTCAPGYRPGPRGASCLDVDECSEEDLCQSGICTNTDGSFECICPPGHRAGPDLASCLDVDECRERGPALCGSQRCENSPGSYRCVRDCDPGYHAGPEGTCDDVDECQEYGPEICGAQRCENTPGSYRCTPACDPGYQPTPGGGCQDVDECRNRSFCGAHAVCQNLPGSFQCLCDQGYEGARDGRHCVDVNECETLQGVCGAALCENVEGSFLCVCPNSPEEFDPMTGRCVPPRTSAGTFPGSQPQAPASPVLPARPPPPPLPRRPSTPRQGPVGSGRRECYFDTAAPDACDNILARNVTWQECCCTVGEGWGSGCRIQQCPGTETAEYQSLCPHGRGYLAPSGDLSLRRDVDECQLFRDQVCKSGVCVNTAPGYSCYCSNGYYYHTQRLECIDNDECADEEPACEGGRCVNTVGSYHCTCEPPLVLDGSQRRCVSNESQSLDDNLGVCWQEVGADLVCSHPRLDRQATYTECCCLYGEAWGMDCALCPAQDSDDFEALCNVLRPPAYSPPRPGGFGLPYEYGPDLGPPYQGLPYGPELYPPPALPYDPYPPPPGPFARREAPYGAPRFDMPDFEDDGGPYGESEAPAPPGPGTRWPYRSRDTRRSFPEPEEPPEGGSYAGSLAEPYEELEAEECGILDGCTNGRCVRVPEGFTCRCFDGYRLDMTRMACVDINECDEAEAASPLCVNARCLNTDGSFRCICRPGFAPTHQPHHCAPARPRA

On to plasmin, for which the “proteolysis of expressed labeled fragment by plasmin” value is reported as “Murine LTBP4 with the 12-amino-acid insertion was largely resistant to proteolysis” in data set [1], “The human LTBP4 was most readily degraded” in data set [3] and “the murine LTBP4 deleted for the 12 amino acids was readily degraded” in data set [6]. Moreover, the “proteolytic digestion of 35S-labeled fragment (dose-response and time course)” value in data set [2] and in data set [5] was “the human TP2E fragment is more readily cleaved than the mouse LTBP4 sequence” in each case. For the same substance, the “plasmin proteolysis of full-length LTBP4” value in data set [4] is “Full-length LTBP4 protein, produced from cultured cells, is also susceptible to plasmin proteolysis”.
On to elastase, for which the “proteolytic digestion of 35S-labeled fragment (dose-response and time course)” value in data set [2] and in data set [5] was “the human TP2E fragment is more readily cleaved than the mouse LTBP4 sequence” each time.
